Results on five molecules are retold here after patent publication US12497460B2, “Anti-MSR1 antibodies and methods of use thereof” (REGENERON PHARMACEUTICALS, INC., priority 2018, dated 2025).

Assay [1] has as its target T1, Ac-LDL binding to His9-hMSR1 (Homo sapiens, UniProt P21757).
T1 construct: human MSR1 extracellular domain expressed with a N-terminal nonahistidine tag; His9 (nonahistidine) (N); purchased R&D Systems 2708-MS
T1 sequence (P21757 77-451 limits assumed): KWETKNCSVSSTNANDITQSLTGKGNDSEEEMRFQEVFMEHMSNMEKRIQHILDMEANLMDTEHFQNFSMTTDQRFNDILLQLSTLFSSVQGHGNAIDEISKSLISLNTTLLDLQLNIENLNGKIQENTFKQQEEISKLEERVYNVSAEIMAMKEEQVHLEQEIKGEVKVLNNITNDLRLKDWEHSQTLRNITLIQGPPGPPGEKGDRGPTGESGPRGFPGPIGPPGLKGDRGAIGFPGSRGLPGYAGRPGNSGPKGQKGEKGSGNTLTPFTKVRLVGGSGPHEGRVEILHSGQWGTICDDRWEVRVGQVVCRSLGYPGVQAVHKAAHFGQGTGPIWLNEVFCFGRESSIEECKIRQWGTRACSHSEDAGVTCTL
As to the kind of experiment: Competition sandwich ELISA, blocking of Ac-LDL binding. The conditions noted are these: 50 pM Ac-LDL. Here is the method:
The ability of anti-MSR1 antibodies disclosed herein to block the binding of various ligands to human MSR1 was measured using three competition sandwich ELISA assays. The ligands used in the assays were: (1) acetylated LDL (Ac-LDL), (2) oxidized LDL (Ox-LDL), and (3) advanced glycation end-products of bovine serum albumin (AGE-BSA).
Anti-MSR1 antibodies or isotype control antibodies were serially diluted as appropriate for each tested ligand and added in duplicate for each serial dilution set to microtiter plates coated with His9-hMSR1. Buffer alone was also added to wells on each coat. […] This assay was conducted in four different assay runs.
Data analysis was performed using a sigmoidal dose-response model within Prism™ software (GraphPad). Percent blockade at maximum concentration of the antibody tested in each assay was calculated as an indicator of the ability of the antibodies to block the binding of Ac-LDL, Ox-LDL or biot-AGE-BSA to His9-hMSR1 on the plate relative to the baseline of the assay. In the calculation, binding signal of the same concentrations of Ac-LDL, Ox-LDL, or biot-AGE-BSA used for the assays in the absence of antibody was referenced as 100% binding or 0% blocking, while the baseline of the assay, defined as binding signal of the sample of buffer without MSR1 ligands or antibody, was referenced as 0% binding or 100% blocking. The maximum percent blockade at the highest concentration of antibody tested in each assay are reported for all antibodies.
(In general: An ELISA detects its analyte on a solid surface through an enzyme-linked reagent.)

Assay [2] has as its target T2, HEK293.Myc.hMSR1 cells (human MSR1) (Homo sapiens, UniProt P21757).
T2 construct: expressed in transfected cells; host or cells: HEK293 (lentiviral transduction, hygromycin selection)
T2 sequence (P21757 1-451): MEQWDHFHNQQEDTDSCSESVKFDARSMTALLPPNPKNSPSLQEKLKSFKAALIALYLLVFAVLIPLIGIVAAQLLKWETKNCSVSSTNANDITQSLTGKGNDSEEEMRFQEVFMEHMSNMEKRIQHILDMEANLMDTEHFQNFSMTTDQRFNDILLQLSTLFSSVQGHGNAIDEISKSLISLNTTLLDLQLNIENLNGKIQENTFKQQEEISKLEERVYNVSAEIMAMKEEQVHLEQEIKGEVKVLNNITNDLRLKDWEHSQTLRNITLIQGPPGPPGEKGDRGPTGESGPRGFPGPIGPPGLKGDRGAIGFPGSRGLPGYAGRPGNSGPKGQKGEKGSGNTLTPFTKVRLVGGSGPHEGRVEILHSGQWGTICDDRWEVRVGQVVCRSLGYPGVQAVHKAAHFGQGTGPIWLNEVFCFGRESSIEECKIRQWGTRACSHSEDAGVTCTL
As to the kind of experiment: Electrochemiluminescence antibody binding assay on MSR1-expressing cells. The assay is classed as cell-based.

Assay [3] addresses T3, His9-mMSR1 (mouse MSR1 extracellular domain) (Mus musculus, UniProt P30204).
T3 construct: mouse MSR1 extracellular domain expressed with a N-terminal nonahistidine tag; His9 (nonahistidine) (N); purchased R&D Systems 1797-MS
T3 sequence (P30204 79-458 limits assumed): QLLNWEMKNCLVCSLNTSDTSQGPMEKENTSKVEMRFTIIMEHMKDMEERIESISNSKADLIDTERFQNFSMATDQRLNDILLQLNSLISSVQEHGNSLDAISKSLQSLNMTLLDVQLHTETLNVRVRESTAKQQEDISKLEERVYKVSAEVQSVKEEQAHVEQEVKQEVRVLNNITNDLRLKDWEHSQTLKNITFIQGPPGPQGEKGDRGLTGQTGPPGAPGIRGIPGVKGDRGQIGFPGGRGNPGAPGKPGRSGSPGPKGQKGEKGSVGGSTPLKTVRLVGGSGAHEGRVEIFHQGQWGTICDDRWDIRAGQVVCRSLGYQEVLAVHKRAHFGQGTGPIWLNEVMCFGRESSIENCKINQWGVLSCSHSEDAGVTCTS
As to the kind of experiment: OCTET bio-layer interferometry binding kinetics of anti-MSR1 mAbs. To be noted: 25° C., antibody-capture format, analyte His9-mMSR1; for kd: * = no dissociation observed, kd manually fixed at 5.00E−05; for t½: dissociative half-life. Here is the method: Binding affinities and kinetic constants of human anti-MSR1 antibodies for different MSR1 reagents were determined using a real time, label-free bio-layer interferometry assay on an OCTET® HTX biosensor platform (Pall FortéBio Corp., Menlo Park, CA). The experiment was performed at 25° C. in 10 mM HEPES, 150 mM NaCl, 3 mM EDTA, 0.05% v/v Surfactant Tween-20, and 1 mg/mL BSA, pH7.4 (HBS-EBT) buffer with the plate shaking at the speed of 1000 rpm. Binding studies were performed on human MSR1 extracellular domain expressed with a N-terminal nonahistidine tag (His9-hMSR1; R&D Systems, Cat #2708-MS), monkey MSR1 extracellular domain expressed with a N-terminal myc-myc-hexahistidine tag (HMM-mfMSR1; SEQ ID NO: 418), and mouse MSR1 extracellular domain expressed with a N-terminal nonahistidine tag (His9-mMSR1; R&D Systems, Cat #1797-MS). The anti-MSR1 monoclonal antibodies were captured by dipping either anti-human Fc (AHC) or anti-mouse Fc (AMC) Octet biosensors in wells containing 5 μg/mL or 10 μg/mL of anti-MSR1 monoclonal antibody for 45-90 seconds. The AHC captured anti-MSR1 monoclonal antibodies were then dipped in wells containing 50 nM of His9-mMSR1, while the AMC captured anti-MSR1 monoclonal antibodies were dipped in wells containing different concentrations of His9-hMSR1 or HMM-mfMSR1 (100 nM, 25 nM) or 100 nM His9-mMSR1. The binding of different MSR1 reagents to the captured anti-MSR1 monoclonal antibody was measured for 4 minutes and the dissociation of monoclonal antibody bound MSR1 reagent was monitored for 8-10 minutes in HBS-EBT buffer.
The association rate (ka) and dissociation rate (kd) were determined by fitting the real-time binding sensorgrams to a 1:1 binding model with mass transport limitation using Scrubber 2.0c curve-fitting software. Binding dissociation equilibrium constant (KD) and dissociative half-life (t½) were calculated from the kinetic rates as: […]
Binding kinetics parameters for His9-hMSR1, HMM-mfMSR1 or His9-mMSR1 binding to different anti-MSR1 monoclonal antibodies of the invention at 25° C. are shown in Tables 8 and 9.
A general note: In BLI a coated tip is dipped into the sample, and binding shifts an interference pattern.

B1: H1H21227N-N297Q: "modified versions of 21227N (H1H21227N-N297Q and H1H21227N-N297D)"; anti-MSR1 antibody "with a N297Q single point mutation" (antibody, V domains shown)
VH: QVQLVQSGAEVKKPGASVKVSCKVSGYTLTELSIHWVRQVPGKGLEWMGGFDPEEGETIFAQEFRDRVTLTEDTSPDTAYMELSSLKSEDAAVYYCTTPRYCNNGICYDYWGQGTLVTVSS
VL: DIQMTQSPSSLSASVGDRVTITCRASQSISNYLNWYQQKPGKAPKLLIYTASSLQSGVPSRFSGSGSGTDFTLTISSLQTEDFATYYCQQSYSNFPITFGQGTRLEIKR
Broadly, the Kd is the free concentration of one partner at which half of the binding sites on the other are occupied at equilibrium, for simple one-to-one binding. The term t½ denotes the time needed for the level to fall by half in the phase considered. The low end stands for rapid decline, the high end for slow decline. With B1, the “Anti-MSR1 antibody (100 nM) blocking of Ac-LDL binding to His9-hMSR1 % Blocking” value (“Anti-MSR1 antibody … to His9-hMSR1 % Blocking” below) in assay [1] is on record as 105%. In addition, the “Ratio of 11 nM Antibody Binding Signal (RLU) to isotype control, HEK293.Myc.hMSR1” value (shortened to “Ratio of 11 nM Antibody Binding Signal”) in assay [2] was found to be 37. Further, in assay [3], the dissociation constant (Kd) was determined as 1.89 nM, the ka was found to be 374000 M⁻¹ s⁻¹, the kd came to 0.000708 s⁻¹ and the t½ turned out to be 16 min.

B2: H1H21231N-N297Q: modified version of "21231N (H1H21231N-N297Q) anti-MSR1 antibodies" with "a N297Q single point mutation" (antibody, V domains shown)
VH: EVQLVESGGGLVQPGGSLRLSCAASGFTFSDHYMDWVRQAPGKGLEWVGRTRNKANSHTTEYTASVTGRFTISRDDSRNSLYLQMNSLKTEDTAVYYCVRAGIIGTLFDYWGQGTLVTVSS
VL: DIQMTQFPSSLSASVGDRVTITCRASQSISSFLNWFQQKPGKAPKFLIYAASSLQSGVPSRFSGSGSGTDFTLTISSLQPEDFATYYCQQSYSSPPITFGQGTRLEIKR
Turning to B2, the “Anti-MSR1 antibody … to His9-hMSR1 % Blocking” value in assay [1] is reported as −60%.

B3: H1H21231N: "anti-MSR1 antibodies ... (21227N, 21231N, 21234N) were produced with the original human Fcγ portion"; "H1H" = human IgG1 Fc (antibody, V domains shown)
VH: EVQLVESGGGLVQPGGSLRLSCAASGFTFSDHYMDWVRQAPGKGLEWVGRTRNKANSHTTEYTASVTGRFTISRDDSRNSLYLQMNSLKTEDTAVYYCVRAGIIGTLFDYWGQGTLVTVSS
VL: DIQMTQFPSSLSASVGDRVTITCRASQSISSFLNWFQQKPGKAPKFLIYAASSLQSGVPSRFSGSGSGTDFTLTISSLQPEDFATYYCQQSYSSPPITFGQGTRLEIKR
modifications: human IgG1 Fc
notes: "anti-MSR1 antibodies ; (21227N, 21231N, 21234N) were produced with the original human Fcγ portion"; "H1H" = human IgG1 Fc
Regarding B3, the “Anti-MSR1 antibody … to His9-hMSR1 % Blocking” value in assay [1] is given as −62%. Also, the “Ratio of 11 nM Antibody Binding Signal” value in assay [2] is 61.

B4: H1H21227N: "anti-MSR1 antibodies ... (21227N, 21231N, 21234N) were produced with the original human Fcγ portion"; "H1H" = human IgG1 Fc (antibody, V domains shown)
VH: QVQLVQSGAEVKKPGASVKVSCKVSGYTLTELSIHWVRQVPGKGLEWMGGFDPEEGETIFAQEFRDRVTLTEDTSPDTAYMELSSLKSEDAAVYYCTTPRYCNNGICYDYWGQGTLVTVSS
VL: DIQMTQSPSSLSASVGDRVTITCRASQSISNYLNWYQQKPGKAPKLLIYTASSLQSGVPSRFSGSGSGTDFTLTISSLQTEDFATYYCQQSYSNFPITFGQGTRLEIKR
modifications: human IgG1 Fc
notes: as for B3
For the molecule B4, the “Anti-MSR1 antibody … to His9-hMSR1 % Blocking” value in assay [1] worked out at 105%. In assay [2], the “Ratio of 11 nM Antibody Binding Signal” value came out at 37. Also, in assay [3], the equilibrium dissociation constant (Kd) is 1.97 nM, the ka stood at 415000 M⁻¹ s⁻¹, the kd stood at 0.000816 s⁻¹ and the t½ is listed as 14 min.

B5: H1H21227N-N297D: "The 21227N antibody was also produced as a third version with a N297D mutation" (antibody, V domains shown)
VH: QVQLVQSGAEVKKPGASVKVSCKVSGYTLTELSIHWVRQVPGKGLEWMGGFDPEEGETIFAQEFRDRVTLTEDTSPDTAYMELSSLKSEDAAVYYCTTPRYCNNGICYDYWGQGTLVTVSS
VL: DIQMTQSPSSLSASVGDRVTITCRASQSISNYLNWYQQKPGKAPKLLIYTASSLQSGVPSRFSGSGSGTDFTLTISSLQTEDFATYYCQQSYSNFPITFGQGTRLEIKR
As for B5, in assay [1], the “Anti-MSR1 antibody … to His9-hMSR1 % Blocking” value is 101%. Besides, the “Ratio of 11 nM Antibody Binding Signal” value in assay [2] is given as 34. Besides, in assay [3], binding was characterised by a dissociation constant (Kd) of 1.71 nM, the ka came out at 461000 M⁻¹ s⁻¹, the kd stood at 0.000786 s⁻¹ and the t½ is given as 15 min.
